According to PMC5766580, “Each protomer of a dimeric YidC functions as a single membrane insertase” (Scientific Reports, 2018):

Molecular target: the molecule itself
Test: native gel or EMSA; Blue Native PAGE of inner membrane vesicles from a cell lysate, Western blot

B1: cysteine-less YidC (YidC0), monomeric construct (natural protein, E. coli, UniProt P25714 1-548, looked up)
chain: MDSQRNLLVIALLFVSFMIWQAWEQDKNPQPQAQQTTQTTTTAAGSAADQGVPASGQGKLISVKTDVLDLTINTRGGDVEQALLPAYPKELNSTQPFQLLETSPQFIYQAQSGLTGRDGPDNPANGPRPLYNVEKDAYVLAEGQNELQVPMTYTDAAGNTFTKTFVLKRGDYAVNVNYNVQNAGEKPLEISSFGQLKQSITLPPHLDTGSSNFALHTFRGAAYSTPDEKYEKYKFDTIADNENLNISSKGGWVAMLQQYFATAWIPHNDGTNNFYTANLGNGIAAIGYKSQPVLVQPGQTGAMNSTLWVGPEIQDKMAAVAPHLDLTVDYGWLWFISQPLFKLLKWIHSFVGNWGFSIIIITFIVRGIMYPLTKAQYTSMAKMRMLQPKIQAMRERLGDDKQRISQEMMALYKAEKVNPLGGSFPLLIQMPIFLALYYMLMGSVELRQAPFALWIHDLSAQDPYYILPILMGVTMFFIQKMSPTTVTDPMQQKIMTFMPVIFTVFFLWFPSGLVLYYIVSNLVTIIQQQLIYRGLEKRGLHSREKKKS
notes: membrane insertase YidC of E. coli, the plasmid-encoded yidC gene; cysteine 423 replaced by serine; Copies 2 is the dimeric form seen on Blue Native PAGE. 'Full length' rests on the words 'the yidC gene'; also called YidC-C0; monomeric YidC0; source: E. coli MK6, from plasmid pGZ119-YidC0, in inner membrane vesicles from a cell lysate
With B1 the “stoichiometry N” value was 2.
